Reference: patent publication US20240287172A1 (SCIRHOM, published 2024)
Substitutions are numbered along the chain they refer to.

Columns and labels:
hiR2-FL-P575A-T7 = molecular target: T1, hiR2-FL-P575A-T7 (human, UniProt Q6PJF5 1-856); assay: FACS on MEF-DKO cells expressing the variant, 3 µg/ml antibody
T1 sequence: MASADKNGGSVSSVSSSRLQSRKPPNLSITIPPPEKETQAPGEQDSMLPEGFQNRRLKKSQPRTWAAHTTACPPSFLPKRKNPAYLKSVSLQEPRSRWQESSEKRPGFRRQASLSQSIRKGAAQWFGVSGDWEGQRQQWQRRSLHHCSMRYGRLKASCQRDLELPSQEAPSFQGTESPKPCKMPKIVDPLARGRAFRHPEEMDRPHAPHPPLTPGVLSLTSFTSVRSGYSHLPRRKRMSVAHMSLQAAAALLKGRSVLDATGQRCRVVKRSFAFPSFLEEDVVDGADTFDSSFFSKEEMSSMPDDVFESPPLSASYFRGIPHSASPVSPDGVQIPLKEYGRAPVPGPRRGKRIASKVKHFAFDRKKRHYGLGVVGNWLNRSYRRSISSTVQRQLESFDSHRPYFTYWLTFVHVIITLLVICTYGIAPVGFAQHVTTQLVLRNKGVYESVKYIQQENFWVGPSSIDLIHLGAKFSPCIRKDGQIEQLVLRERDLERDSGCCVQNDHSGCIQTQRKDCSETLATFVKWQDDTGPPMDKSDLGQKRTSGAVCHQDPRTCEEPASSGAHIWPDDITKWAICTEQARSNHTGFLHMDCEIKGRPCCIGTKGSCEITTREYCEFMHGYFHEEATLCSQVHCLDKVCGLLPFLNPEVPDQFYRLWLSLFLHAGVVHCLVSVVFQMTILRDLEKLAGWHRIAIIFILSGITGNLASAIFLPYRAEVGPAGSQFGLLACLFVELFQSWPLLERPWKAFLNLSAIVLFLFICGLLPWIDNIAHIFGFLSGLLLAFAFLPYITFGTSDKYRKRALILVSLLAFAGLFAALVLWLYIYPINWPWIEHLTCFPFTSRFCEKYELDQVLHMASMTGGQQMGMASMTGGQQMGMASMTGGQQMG
Method in brief: (§1)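 Cells were stained with purified antibody at 3 μg/ml in FACS buffer for 1 hour on ice, with buffer-only controls. Bound antibody was detected with PE-conjugated goat anti-mouse IgG F(ab′)2 at 1:100, 1 hour on ice in the dark, followed by flow cytometry.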

hiR2-FL-N584A-T7 = molecular target: T2, hiR2-FL-N584A-T7 (human, UniProt Q6PJF5 1-856); assay: as above
T2 sequence: T1 sequence with A575P, N584A
Method in brief: as §1

B1: antibody 3 (antibody, V domains shown)
VH: QVTLKESGPGILQPSQTLSLTCSFSGFSLTTFAMGIGWVRQPSGKGLEWLAHIWWDGEKYNNPVLKSRLTISKDTSKNQVFLRIANVDTPDTATYYCARISSIYYIIDNWGQGTSVTVSS
VL: DIVLTQSPATLSVTPGHSVSLSCRASQSISNNLHWYQKKSHESPRLLIKYVSQSISGIPSRFSGSGSGTDFTLSINSVETEDFGMYFCQQSYNWPLTFGAGTKLELK
notes: mouse IgG, kappa light chain; also called clone #3; purified antibody 3
hiR2-FL-P575A-T7
  loss of binding vs wild type: ≥ 30%
hiR2-FL-N584A-T7
  loss of binding vs wild type: ≥ 30%
